Legend:
[1] = molecular target: T1, CyPet-Ubc9 (SUMOylation E2 conjugating enzyme Ubc9 fused to the FRET donor CyPet) (human, UniProt P63279 1-158); assay: FRET or BRET; conditions: both partners purified
T1 construct: also called SUMO E2

[2] = molecular target: T2, CyPet-PIAS1 (SUMOylation E3 ligase PIAS1 fused to the FRET donor CyPet) (human, UniProt O75925 1-651); assay: FRET or BRET; conditions: both partners purified
T2 construct: also called SUMO E3
T2 sequence (O75925 whole entry, the tested form may be a part): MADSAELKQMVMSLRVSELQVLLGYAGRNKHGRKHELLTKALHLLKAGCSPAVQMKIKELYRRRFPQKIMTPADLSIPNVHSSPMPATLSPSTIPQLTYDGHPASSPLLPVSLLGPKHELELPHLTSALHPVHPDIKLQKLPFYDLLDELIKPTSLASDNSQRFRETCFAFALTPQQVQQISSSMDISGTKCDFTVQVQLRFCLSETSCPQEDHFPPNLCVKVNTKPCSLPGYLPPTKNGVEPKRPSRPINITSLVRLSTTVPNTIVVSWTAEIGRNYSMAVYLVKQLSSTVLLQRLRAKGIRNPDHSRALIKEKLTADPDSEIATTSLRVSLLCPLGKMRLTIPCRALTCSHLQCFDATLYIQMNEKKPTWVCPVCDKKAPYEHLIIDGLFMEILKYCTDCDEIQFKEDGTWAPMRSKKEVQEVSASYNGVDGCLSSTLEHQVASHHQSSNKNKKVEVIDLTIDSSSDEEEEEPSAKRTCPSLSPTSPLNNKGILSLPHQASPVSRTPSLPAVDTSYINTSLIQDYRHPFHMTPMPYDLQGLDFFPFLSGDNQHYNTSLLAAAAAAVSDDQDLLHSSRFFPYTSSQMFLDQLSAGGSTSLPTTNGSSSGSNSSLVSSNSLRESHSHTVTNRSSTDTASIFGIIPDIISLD

T1 sequence (P63279 whole entry, the tested form may be a part): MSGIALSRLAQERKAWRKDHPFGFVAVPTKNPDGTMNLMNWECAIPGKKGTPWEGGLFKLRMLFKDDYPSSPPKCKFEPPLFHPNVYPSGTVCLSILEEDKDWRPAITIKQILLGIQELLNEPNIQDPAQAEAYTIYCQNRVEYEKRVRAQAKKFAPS

B1: YPet-Linker3-M1 (M1 protein of influenza B virus fused to the FRET acceptor YPet) (natural protein)
chain: MSLFGDTIAYLLSLTEDGEGKAELAEKLHCWFGGKEFDLDSALEWIKNKRCLTDIQKALIGASICFLKPKDQERKRRFITEPLSGMGTTATKKKGLILAERKMRRCVSFHEAFEIAEGHESSALLYCLMVMYLNPGNYSMQVKLGTLCALCEKQASHSHRAHSRAARSSVPGVRREMQMVSAMNTAKTMNGMGKGEDVQKLAEELQSNIGVLRSLGASQKNGEGIAKDVMEVLKQSSMGNSALVKKYL
Kd [1]: 200 nM | Kd [2]: 220 nM
